Measured values: patent publication US20260240820A1 (ION CHAT RESEARCH CORPORATE, published 2026)
Where no end group is shown, it is not given here.

B1: Human Type I taste receptor T1R3 (receptor, UniProt Q7RTX0 21-852, looked up)
chain: APLCLSQQLRMKGDYVLGGLFPLGEAEEAGLRSRTRPSSPVCTRFSSNGLLWALAMKMAVEEINNKSDLLPGLRLGYDLFDTCSEPVVAMKPSLMFLAKAGSRDIAAYCNYTQYQPRVLAVIGPHSSELAMVTGKFFSFFLMPQVSYGASMELLSARETFPSFFRTVPSDRVQLTAAAELLQEFGWNWVAALGSDDEYGRQGLSIFSALAAARGICIAHEGLVPLPRADDSRLGKVQDVLHQVNQSSVQVVLLFASVHAAHALFNYSISSRLSPKVWVASEAWLTSDLVMGLPGMAQMGTVLGFLQRGAQLHEFPQYVKTHLALATDPAFCSALGEREQGLEEDVVGQRCPQCDCITLQNVSAGLNHHQTFSVYAAVYSVAQALHNTLQCNASGCPAQDPVKPWQLLENMYNLTFHVGGLPLRFDSSGNVDMEYDLKLWVWQGSVPRLHDVGRFNGSLRTERLKIRWHTSDNQKPVSRCSRQCQEGQVRRVKGFHSCCYDCVDCEAGSYRQNPDDIACTFCGQDEWSPERSTRCFRRRSRFLAWGEPAVLLLLLLLSLALGLVLAALGLFVHHRDSPLVQASGGPLACFGLVCLGLVCLSVLLFPGQPSPARCLAQQPLSHLPLTGCLSTLFLQAAEIFVESELPLSWADRLSGCLRGPWAWLVVLLAMLVEVALCTWYLVAFPPEVVTDWHMLPTEALVHCRTRSWVSFGLAHATNATLAFLCFLGTFLVRSQPGCYNRARGLTFAMLAYFITWVSFVPLLANVQVVLRPAVQMGALLLCVLGILAAFHLPRCYLLMRQPGLNTPEFFLGGGPGDAQGQNDGNTGNQGKHE
notes: whole, on cells; Present on the cells as a T1R3/T1R3 homodimer or as a heterodimer with T1R2 or T1R1; also called TAS1R3; hT1R3

Key:
[1] = target: B1; test: fluorescence microscopy on SH-SY5Y cells
[2] = target: T1, Fluorescent Aβ1-40 peptide (fluorescent label; dye and position not stated); test: fluorescence microscopy on cell surfaces
T1 construct: also called labeled Aβ1-40 peptide

Amyloid β peptide Aβ1-42 = target: T2, Amyloid β peptide Aβ1-42; test: assay not described
T2 construct: Bought (Wako Pure Chemical Industries); also called Aβ42; amyloid β1-42 peptide
T2 sequence (peptide, as listed by the source): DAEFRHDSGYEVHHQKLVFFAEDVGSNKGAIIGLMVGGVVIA

T1 sequence (peptide, as listed by the source): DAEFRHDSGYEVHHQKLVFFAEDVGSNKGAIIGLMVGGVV

Row | Binder | binding result [1] | binding result [2] | binding result (Amyloid β peptide Aβ1-42)
1 | GSNKGAIIGLM (also: fluorescent label, dye and position not given here, also called fluorescent Aβ25-35 peptide) [Fluorescently labeled Aβ25-35 peptide (FL-Aβ25-35)] | binds | – | –
2 | B1 | – | binds | binds
